Test results from patent US20080096222A1 (BRIGHAM AND WOMEN S HOSPITAL, published 2008).

Key:
GST alone = molecular target: T1, GST alone (UniProt P08515 1-218 = GST); experiment: GST pulldown from lysates of myc-haspin-transfected cells
T1 construct: Control protein
Method: (§1) For immunoprecipitation, cells are suspended in 50 mM Tris/0.5 M NaCl/1% Triton X-100/1% DOC/0.1% SDS/2 mM EDTA, pH 7.4 (buffer L) with 1 μg/ml pepstatin/1 μg/ml leupeptin/1 μg/ml antipain/1 μg/ml chymostatin/1 mM phenylmethylsulphyl fluoride/1 mM NaF/0.1 μM okadaic acid and lysed by shearing 15 times through a 21 gauge needle. Insoluble material is removed by centrifugation for 15 min at 13,000 rpm and the lysates precleared with protein G-Sepharose and concentrations equalized based on Bradford assay (Bio-Rad). Lysates are incubated with antibodies for 1.5 h at 4° C. before addition of protein G-Sepharose for a further 1.5 h. Beads are washed 4 times with buffer L and thrice with Hepes-buffered saline, pH 7.4 (HBS). For GST pulldown assays, cells are lysed in 20 mM Tris/1% Triton X-100/1 mM EDTA/1 mM DTT, pH 7.4 (buffer T) containing 0.3 M NaCl and protease and phosphatase inhibitors as above, clarified, and precleared with glutathione-Sepharose. […]
(§2) To examine the interaction of haspin with H3, we utilized the H3-GST fusion proteins in “pulldown” assays from lysates of myc-haspin-transfected cells. In the conditions of the assay, myc-haspin bound to H3-GST, whereas the binding of myc-haspin to GST alone, H2B-GST and H4-GST was not detected.

[1] = molecular target: T2, H2B-GST (residues 1-35 of human H2B fused to GST) (human, UniProt P62807 2-36); experiment: as above
T2 construct: range 1-35; not shown: glutathione S-transferase (GST) encoded by vector pETGEX-CT
Method: as §1, §2

T1 sequence (P08515 whole entry): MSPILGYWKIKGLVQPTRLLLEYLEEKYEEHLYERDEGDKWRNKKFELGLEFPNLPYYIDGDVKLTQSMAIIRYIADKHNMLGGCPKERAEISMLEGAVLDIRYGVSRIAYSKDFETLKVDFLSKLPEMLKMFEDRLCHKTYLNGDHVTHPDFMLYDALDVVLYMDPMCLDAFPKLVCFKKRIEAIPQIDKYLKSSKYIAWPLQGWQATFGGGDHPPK
T2 sequence (P62807 2-36): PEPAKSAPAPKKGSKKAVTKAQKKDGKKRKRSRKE

B1: myc-tagged human haspin (enzyme)
chain: AASLPGPGSRLFRTYGAADGRRQRRPGREAAQWFPPQDRRRFFNSSGSSDASIGDPSQSDDPDDPDDPDFPGSPVRRRRRCPGGRVPKDRPSLTVTPKRWKLRARPSLTVTPRRLGLRARPPQKCSTPCGPLRLPPFPSRDSGRLSPDLSVCGQPRDGDELGISASLFSSLASPCPGSPTPRDSVISIGTSACLVAASAVPSDLHLPEVSLDRASLPCSQEEATGGAKDTRMVHQTRASLRSVLFGLMNSGTPEDSEFRADGKNMRESCCKRKLVVGNGPEGPGLSSTGKRRATGQDSCQERGLQEAVRREHQEASVPKGRIVPRGTDRLERTRSSRKSKHQEATETSLLHSHRFKKGQKLGKDSFPTQDLTPLQNACFWTKTRASFSFHKKKIVTDVSEVCSIYTTATSLSGSLLSECSNRPVMNRTSGAPSSWHSSSMYLLSPLNTLSISNKKASDAEKVYGECSQKGPVPFSHCLPTEKLQRCEKIGEGVFGEVFQTIADHTPVAIKIIAIEGPDLVNGSHQKTFEEILPEIIISKELSLLSGEVCNRTEGFIGLNSVHCVQGSYPPLLLKAWDHYNSTKGSANDRPDFFKDDQLFIVLEFEFGGIDLEQMRTKLSSLATAKSILHQLTASLAVAEASLRFEHRDLHWGNVLLKKTSLKKLHYTLNGKSSTIPSCGLQVSIIDYTLSRLERDGIVVFCDVSMDEDLFTGDGDYQFDIYRLMKKENNNRWGEYHPYSNVLWLHYLTDKMLKQMTFKTKCNTPAMKQIKRKIQEFHRTMLNFSSATDLLCQHSLFK
notes: Expressed in transfected HEK293 or HeLa cells and used from cell lysates; also called myc-haspin; full-length haspin; not shown: myc tag encoded by the pcDNA3-derived plasmid pCANmyc1
- binding result (GST alone): no binding
- binding result [1]: no binding
